{"source": "patent US12433934B2", "about": "“Methods and compositions for preventing and treating atherosclerosis and related diseases” (Shanghai Puyou Biomedical Co., Ltd., priority 2018, dated 2025)", "key": {"Hep G2 cells": {"test_system": "Hep G2 cells", "assay": "Uptake of DiL-LDL by Hep G2 cells (fluorescence microscope, flow cytometry)", "assay_type": "cell-based, human", "conditions": "10 h", "description": "Materials: sDSS1 protein, DiL-oxLDL, DiL-LDL (ThermoFisher, L3482), human hepatoma cell Hep G2 (Cell Bank of Typical Culture Preservation Committee of Chinese Academy of Sciences, Catalog Number: SCSP-510).\nExperimental method: (1) When detecting the phagocytosis of oxLDL by Hep G2 cells, Hep G2 cells were inoculated into a 6-well plate with 250000 cells per well. After 12 h, all the cells were adhered. The old culture medium was discarded. 1.5 ml 10 μg/ml DiL-oxLDL was added, or 1.5 ml 10 μg/ml DiL-oxLDL was added together with 5 μg/ml and 50 μg/ml of the sDSS1 protein. After incubation for 9 h in the incubator, the fluorescence signal in the cells was observed by a fluorescence microscope. The cells were digested by trypsin to form single cells for detecting fluorescence intensity via flow cytometry. (2) When detecting the phagocytosis of LDL by Hep G2 cells, Hep G2 cells were inoculated into a 6-well plate with 250000 cells per well. After 12 h, all the cells were adhered. The old culture medium was discarded. 1.5 ml 10 μg/ml DiL-LDL was added, or 1.5 ml 10 μg/ml DiL-LDL was added together with 5 μg/ml and 50 μg/ml of the sDSS1 protein. After incubation for 10 h in the incubator, the fluorescence signal in the cells was observed by fluorescence microscope. The cells were digested by trypsin to form single cells for detecting fluorescence intensity via flow cytometry."}, "ApoE−/− mice": {"test_system": "ApoE−/− mice", "assay": "Plasma oxLDL and LDL levels (ELISA) in ApoE−/− mice after 7 days of administration", "assay_type": "in vivo", "text": "ApoE−/− mice were divided into two groups, the control group and the sDSS1 protein administration group. […] At the end of the administration, the plasma levels of oxLDL and LDL in mice were detected.\nExperimental animal: ApoE−/− mice, 8-10 weeks old, male, were purchased from Nanjing Biomedical Research Institute of Nanjing University. The animals were housed in an animal room for one week before the experiment.\nExperimental materials: sDSS1 protein, oxLDL ELISA kit (Wuhan Elabscience Biotechnology Co., Ltd., Article No.: E-EL-M0066c), LDL ELISA kit (Wuhan Elabscience Biotechnology Co., Ltd., product No.: E-EL-M1363c)\nExperimental method: the ApoE−/− mice were randomly divided into two groups, a control group and a sDSS1 protein group. For 7 days, 200 μl of normal saline was intraperitoneally injected in control group once a day, and 10 mg/kg of the sDSS1 protein was intraperitoneally injected in sDSS1 protein group once a day. After 7 days of administration, the bloods of mice were collected, and plasma was separated with EDTA-Na as an anticoagulant. The plasma oxLDL level was measured by using the oxLDL ELISA kit, and the plasma LDL level was measured by the LDL ELISA kit.\n100 μl of oxLDL standards or samples were added in each well, and incubated for 90 min at 37° C.; the liquid in the well was discarded, 100 μl of biotinylated oxLDL antibody working liquid was added, and incubated at 37° C. for 60 min; washing 3 times; 100 μl of enzyme binding working solution was added, and incubated at 37° C. for 30 min; washing 5 times; 90 μl of substrate solution was added, and incubated at 37° C. for 15 min; 50 μl of termination solution was added, and the OD value was immediately measured at 450 nm wavelength; a standard curve was established with standard products, and the oxLDL level of each sample was calculated according to the standard curve.\n100 μl of LDL standards or samples were added into each well, and incubated for 90 min at 37° C.; the liquid in the well was discarded, 100 μl of biotinylated LDL antibody working liquid was added, and incubated at 37° C. for 60 min; washing 3 times; 100 μl of enzyme binding working liquid was added, and incubated at 37° C. for 30 min; washing 5 times; 90 μl of substrate solution was added, and incubated at 37° C. for 15 min; 50 μl of termination solution was added, and the OD value was immediately measured at 450 nm wavelength; a standard curve was established by using standard products, and the LDL level of each sample was calculated according to the standard curve. The oxLDL/LDL ratio=oxLDL concentration (ng/ml)÷LDL concentration (ng/ml) 5.2 Experimental Results"}, "[1]": {"conditions": "50 μg/ml sDSS1 protein, 10 μg/ml DiL-LDL"}}, "note": "“Also recorded” adds a separate entry of the source.", "data": [{"molecule": "sDSS1 protein: sDSS1 protein produced by the company itself, purity more than 95%; sequence of human sDSS1 protein is SEQ ID NO:1 (protein, listed as Homo sapiens) MSEKKQPVDLGLLEEDDEFEEFPAEDWAGLDEDEDAHVWEDNWDDDNVEDDFSNQLRATVLLMILVCETPYGCYVLHQKGRMCSAFLCC", "values": [{"measurement": "Intensity of Dil fluorescence in Hep G2 cells, DiL-LDL (flow cytometry)", "setting": "Hep G2 cells; 5 μg/ml sDSS1, 10 μg/ml DiL-LDL", "value": "basically consistent"}, {"measurement": "Intensity of Dil fluorescence in Hep G2 cells, DiL-LDL (flow cytometry)", "setting": "Hep G2 cells; 5 μg/ml sDSS1, 10 μg/ml DiL-LDL, listed as sDSS1", "value": "could not cause significant changes"}, {"measurement": "Quantity of Hep G2 cells uptaking DiL-LDL (fluorescence microscope)", "setting": "Hep G2 cells; 5 μg/ml sDSS1 protein, 10 μg/ml DiL-LDL", "value": "not changed significantly"}, {"measurement": "Quantity of Hep G2 cells uptaking DiL-LDL (fluorescence microscope)", "setting": "Hep G2 cells; 5 μg/ml sDSS1 protein, 10 μg/ml DiL-LDL, listed as sDSS1", "value": "no significant difference"}, {"measurement": "Intensity of Dil fluorescence in Hep G2 cells, DiL-LDL (flow cytometry)", "setting": "Hep G2 cells; [1]", "value": "basically consistent; also recorded: could not cause significant changes"}, {"measurement": "Quantity of Hep G2 cells uptaking DiL-LDL (fluorescence microscope)", "setting": "Hep G2 cells; [1]", "value": "not changed significantly"}, {"measurement": "Quantity of Hep G2 cells uptaking DiL-LDL (fluorescence microscope)", "setting": "Hep G2 cells; 50 μg/ml sDSS1 protein, 10 μg/ml DiL-LDL, listed as sDSS1", "value": "no significant difference"}, {"measurement": "Plasma LDL level vs control group", "setting": "ApoE−/− mice; sDSS1 10 mg/kg (10 mpk) intraperitoneal once a day", "value": "no significant difference; also recorded: did not cause significant changes"}, {"measurement": "Plasma oxLDL/LDL ratio vs control group", "setting": "ApoE−/− mice; sDSS1 10 mg/kg intraperitoneal once a day", "value": "significantly lower"}, {"measurement": "Plasma LDL level vs control group", "setting": "ApoE−/− mice; sDSS1 30 mg/kg (30 mpk) intraperitoneal once a day", "value": "did not cause significant changes"}, {"measurement": "Plasma oxLDL level vs control group", "setting": "ApoE−/− mice; sDSS1 30 mg/kg (30 mpk, high dose) intraperitoneal once a day", "value": "significantly reduced"}, {"measurement": "Plasma oxLDL/LDL ratio vs control group", "setting": "ApoE−/− mice; sDSS1 high dose (30 mpk) intraperitoneal once a day", "value": "significantly lower"}]}]}
